Reference: PMC2647743 (Bioconjugate chemistry, 2008)
*: point of attachment. DOTA = O=C(O)CN1CCN(CC(=O)O)CCN(CC(=O)*)CCN(CC(=O)O)CC1; Aoc = NCCCCCCCC(=O)O

B1: In-DOTA-8-AOC-NONSENSE (peptide)
peptide: {DOTA-Aoc}-HMGWLAQV-NH2
modifications: also: In complex of DOTA
B2: DOTA-8-AOC-NONSENSE (peptide)
peptide: {DOTA-Aoc}-HMGWLAQV-NH2
SMILES: CSCC[C@H](NC(=O)[C@H](Cc1c[nH]cn1)NC(=O)CCCCCCCNC(=O)CN1CCN(CC(=O)O)CCN(CC(=O)O)CCN(CC(=O)O)CC1)C(=O)NCC(=O)N[C@@H](Cc1c[nH]c2ccccc12)C(=O)N[C@@H](CC(C)C)C(=O)N[C@@H](C)C(=O)N[C@@H](CCC(N)=O)C(=O)N[C@H](C(N)=O)C(C)C

Target: BB2 receptor (gastrin-releasing peptide receptor) (human (endogenous in PC-3), UniProt P30550 1-384)
Sequence (P30550 whole entry): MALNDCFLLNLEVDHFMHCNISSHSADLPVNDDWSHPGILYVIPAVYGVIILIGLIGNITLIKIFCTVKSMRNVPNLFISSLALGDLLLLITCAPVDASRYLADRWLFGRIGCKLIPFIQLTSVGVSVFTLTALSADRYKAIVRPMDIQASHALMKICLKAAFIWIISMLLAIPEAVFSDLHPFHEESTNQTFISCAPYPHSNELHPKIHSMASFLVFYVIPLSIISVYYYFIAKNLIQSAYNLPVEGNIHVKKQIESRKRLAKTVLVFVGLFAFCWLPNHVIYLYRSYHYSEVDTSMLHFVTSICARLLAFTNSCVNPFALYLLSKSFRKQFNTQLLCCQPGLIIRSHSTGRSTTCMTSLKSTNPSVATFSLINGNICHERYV
Assay: radioligand binding

| Binder | IC50 |
| --- | --- |
| B1 | > 10 µM |
| B2 | > 10 µM |
